Biological target: mERK2 9m peptide (synthetic short-chain peptide for CD8-positive T-cell stimulation, …) (mouse)
Experiment: cell-based or functional assay

Substance “mutated ERK2-specific T-cell receptor of DUC18 transgenic mice, on CD8-positive T cells (TCR)” has a percentage of IFN-γ-producing cells in CD90.1-positive CD8-positive infused T cells of the draining lymph node after stimulation with mERK2 9m peptide (intracellular cytokine staining) of 80%.

Source: patent publication US20240398864A1
